The values below come from doi:10.1101/2025.03.31.646278.

The target of this experiment is HPV16 L1 pentamer (deletion construct of the major capsid protein L1) (human papillomavirus type 16). Description: cryo-EM structure.

The substance “HPV16 L1 pentamer (deletion construct of the major capsid protein L1) (domain or fragment)” displayed a stoichiometry N (protomers per pentamer) of 5.
